Measurements from patent US20080064048A1, “Methods for Selecting Proteins that are Readily Presented as Antigens on Dendritic Cells” (Medical and Biological Laboratories, Co., Ltd., priority 2004, published 2008).

How the values were obtained:
BiP = biological target: T1, BiP (Mus musculus, UniProt P20029); assay: Co-immunoprecipitation of bOVA with anti-BiP; format: binding; conditions: DC2.4 cells incubated with bOVA
T1 construct: BiP, an endogenous ER protein, was detected in the same microsomal fraction; endogenous in cells; host or cells: DC2.4 mouse dendritic cell line
T1 sequence (P20029 20-655): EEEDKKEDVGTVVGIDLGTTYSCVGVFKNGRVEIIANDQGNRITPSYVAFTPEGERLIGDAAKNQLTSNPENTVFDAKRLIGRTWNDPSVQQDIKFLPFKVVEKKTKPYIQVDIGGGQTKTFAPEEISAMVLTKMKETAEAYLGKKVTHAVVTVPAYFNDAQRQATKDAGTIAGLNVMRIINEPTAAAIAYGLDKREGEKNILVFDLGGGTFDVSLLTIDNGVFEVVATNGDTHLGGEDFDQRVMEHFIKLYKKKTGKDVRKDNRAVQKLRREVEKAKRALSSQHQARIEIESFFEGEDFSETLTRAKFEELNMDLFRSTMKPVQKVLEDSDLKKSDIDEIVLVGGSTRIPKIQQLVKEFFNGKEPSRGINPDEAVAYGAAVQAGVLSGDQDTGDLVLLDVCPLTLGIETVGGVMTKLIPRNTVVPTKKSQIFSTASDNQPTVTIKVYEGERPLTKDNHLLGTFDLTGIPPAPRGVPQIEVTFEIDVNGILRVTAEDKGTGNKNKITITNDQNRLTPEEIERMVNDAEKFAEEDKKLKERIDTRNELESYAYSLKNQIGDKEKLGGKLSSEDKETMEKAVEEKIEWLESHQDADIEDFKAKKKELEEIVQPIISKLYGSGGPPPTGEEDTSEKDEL
Procedure: (§1) 2×10^7 DC2.4 or BMDC cells were cultured for four hours in a medium containing 10 μM MG-132 in the presence of bOVA at 250 μg mL^−1. Cells were lysed in 20 mM HEPES pH7.6 containing 1% digitonin and protease inhibitors to collect biotin-labeled samples. The samples were cleared of impurities in advance using protein G sepharose (Amersham Pharmacia Biotech), and after incubation with antibodies for precipitation (anti-Sec61β, anti Sec61α, anti-VCP, anti-BiP, anti-PDI, anti-calreticulin, anti-TAP1, and anti-TAP2), the immunoprecipitates were collected using protein G. When chicken anti-CHIP antibody was used, immunoprecipitates were collected using a rabbit anti-IgY column (a person, MBL). The precipitated samples were analyzed by SDS-PAGE and Western blotting.

CHIP = biological target: T2, CHIP (Mus musculus, UniProt Q9WUD1); assay: Co-immunoprecipitation of bOVA with anti-CHIP; format: binding; conditions: DC2.4 cells incubated with bOVA
T2 construct: endogenous in cells; host or cells: DC2.4 mouse dendritic cell line
T2 sequence (Q9WUD1 1-304): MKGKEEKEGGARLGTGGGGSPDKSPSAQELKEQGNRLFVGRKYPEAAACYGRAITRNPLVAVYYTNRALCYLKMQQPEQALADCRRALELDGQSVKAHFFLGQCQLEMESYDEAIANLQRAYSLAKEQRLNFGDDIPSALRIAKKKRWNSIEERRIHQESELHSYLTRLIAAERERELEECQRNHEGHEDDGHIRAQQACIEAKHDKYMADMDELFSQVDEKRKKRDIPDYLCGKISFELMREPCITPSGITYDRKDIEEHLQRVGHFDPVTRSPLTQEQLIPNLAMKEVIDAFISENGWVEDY
Procedure: as §1

calreticulin = biological target: T3, calreticulin (Mus musculus, UniProt P14211); assay: Co-immunoprecipitation of bOVA with anti-calreticulin; format: binding; conditions: DC2.4 cells incubated with bOVA
T3 construct: Three types of ER resident proteins; endogenous in cells; host or cells: DC2.4 mouse dendritic cell line
T3 sequence (P14211 18-416): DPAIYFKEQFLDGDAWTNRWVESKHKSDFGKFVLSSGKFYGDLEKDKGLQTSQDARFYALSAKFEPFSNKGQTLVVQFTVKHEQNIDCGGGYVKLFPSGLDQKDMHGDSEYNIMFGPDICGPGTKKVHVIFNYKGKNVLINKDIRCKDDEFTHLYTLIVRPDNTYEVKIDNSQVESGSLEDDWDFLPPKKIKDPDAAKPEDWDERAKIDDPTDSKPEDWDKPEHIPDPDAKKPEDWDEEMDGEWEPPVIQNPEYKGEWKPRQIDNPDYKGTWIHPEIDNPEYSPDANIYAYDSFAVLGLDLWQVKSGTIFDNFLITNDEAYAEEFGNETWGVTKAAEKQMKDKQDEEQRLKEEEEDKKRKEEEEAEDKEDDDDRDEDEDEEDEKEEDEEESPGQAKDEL
Procedure: as §1

DC2.4 cells = assay: Uptake of antigen into DC2.4 cells; format: cell-based, mouse; conditions: CHIP-knocked-down DC2.4 (C4 and C4F-1)
Excerpt: When CHIP-knocked-down DC2.4 cells (C4 and C4F-1) were produced to examine the polyubiquitination of bOVA when CHIP is knocked down, the uptake of bOVA into the CHIP-knocked-down DC2.4 cells was only about 70% that of uptake into the parental DC2.4 cells (FIGS. 4d and 4f). Despite this fact, polyubiquitination of bOVA was reduced to 34% in CHIP-knocked-down cells (FIG. 4f). The decrease in the amount of accumulated OVA was slowed down in CHIP-knocked-down cells (FIGS. 4d and 4e).
Next, DC2.4 cells were incubated for a set amount of time with OVA in the presence or absence of lactacystin (LC), and OVA taken up into the cells was measured. OVA taken up into cells in the presence or absence of Hsp90 was measured similarly.

PDI = biological target: T4, PDI (Mus musculus, UniProt P09103); assay: Co-immunoprecipitation of bOVA with anti-PDI; format: binding; conditions: DC2.4 cells incubated with bOVA
T4 construct: Three types of ER resident proteins; endogenous in cells; host or cells: DC2.4 mouse dendritic cell line
T4 sequence (P09103 20-509): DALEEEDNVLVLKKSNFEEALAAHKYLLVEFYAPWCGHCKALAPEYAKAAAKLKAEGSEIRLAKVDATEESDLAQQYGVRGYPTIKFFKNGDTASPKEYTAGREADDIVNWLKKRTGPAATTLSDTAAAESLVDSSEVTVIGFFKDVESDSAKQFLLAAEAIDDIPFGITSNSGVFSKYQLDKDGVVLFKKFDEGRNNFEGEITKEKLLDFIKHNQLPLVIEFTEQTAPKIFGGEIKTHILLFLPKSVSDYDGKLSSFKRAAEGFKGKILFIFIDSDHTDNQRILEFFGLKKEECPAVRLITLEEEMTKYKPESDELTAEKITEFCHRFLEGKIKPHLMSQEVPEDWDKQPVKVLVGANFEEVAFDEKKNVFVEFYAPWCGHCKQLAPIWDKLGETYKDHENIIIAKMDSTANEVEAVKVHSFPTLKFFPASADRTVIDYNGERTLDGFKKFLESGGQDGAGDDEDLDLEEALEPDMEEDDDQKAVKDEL
Procedure: as §1

Sec61β = biological target: T5, Sec61β (Mus musculus, UniProt Q9CQS8); assay: Co-immunoprecipitation of bOVA with anti-Sec61β; format: binding
T5 construct: endogenous in cells; host or cells: DC2.4 mouse dendritic cell line; bone marrow-derived dendritic cells
Procedure: as §1

interaction with BiP (co-immunoprecipitation) (BiP): interacts
interaction with CHIP (co-immunoprecipitation) (CHIP): interacts
interaction with calreticulin (co-immunoprecipitation) (calreticulin): interacts
B1: bOVA: biotin-labeled OVA antigen (protein)
chain: GSIGAASMEFCFDVFKELKVHHANENIFYCPIAIMSALAMVYLGAKDSTRTQINKVVRFDKLPGFGDSIEAQCGTSVNVHSSLRDILNQITKPNDVYSFSLASRLYAEERYPILPEYLQCVKELYRGGLEPINFQTAADQARELINSWVESQTNGIIRNVLQPSSVDSQTAMVLVNAIVFKGLWEKAFKDEDTQAMPFRVTEQESKPVQMMYQIGLFRVASMASEKMKILELPFASGTMSMLVLLPDEVSGLEQLESIINFEKLTEWTSSNVMEERKIKVYLPRMKMEEKYNLTSVLMAMGITDVFSSSANLSGISSAESLKISQAVHAAHAEINEAGREVVGSAEAGVDAASVSEEFRADHPFLFCIKHIATNAVLFFGRCVSP
uptake of bOVA into CHIP-knocked-down cells relative to parental DC2.4 cells (DC2.4 cells): about 70%
interaction with PDI (co-immunoprecipitation) (PDI): interacts
interaction with Sec61β (co-immunoprecipitation) (Sec61β; BMDCs): interacts
interaction with Sec61β (co-immunoprecipitation) (Sec61β; DC2.4 cells incubated with bOVA): interacts
